Measurements published in publication PMC5314372.

Experiments:
[1] = biological target: bacteriophage ΦAB6 tailspike protein (bacteriophage ΦAB6); assay: SEC; analytical gel-filtration column, single peak; calibration curve of log MW versus Ve/V0 with five protein markers
[2] = biological target: bacteriophage ΦAB6 tailspike protein (bacteriophage ΦAB6); assay: AUC; sedimentation at 20,000 rpm, Beckman XL-A, An-60 Ti rotor; 25 mM Tris-HCl, 300 mM NaCl, pH 8.0; analysed with SEDFIT
[3] = biological target: N-terminally-truncated ΦAB6 tailspike protein (residues 136-699) (bacteriophage ΦAB6); assay: as above
[4] = biological target: N-terminally-truncated ΦAB6 tailspike protein (residues 136-699) (bacteriophage ΦAB6); assay: crystal structure; hanging-drop vapor diffusion at 20 °C; 1.0 M sodium malonate pH 7.0 or 0.9 M sodium citrate, 0.1 M sodium cacodylate pH 6.5; space group C2, one trimer in the asymmetric unit; free form and forms soaked with Ab-54149 polysaccharide

Substance | stoichiometry N [1] | stoichiometry N [2] | stoichiometry N [3] | stoichiometry N [4]
bacteriophage ΦAB6 tailspike protein (enzyme) | 3 | 3 |  | 
N-terminally-truncated ΦAB6 tailspike protein (residues 136-699) (domain or fragment) |  |  | 3 | 3
